Measurements reported in US20250145716A1 (RAKUTEN MEDICAL, published 2025).

Tests used:
[1] = molecular target: T1, human PD-L1 expressed on cells (human, UniProt Q9NZQ7 19-290); assay: flow cytometry on unstimulated A431 cells (MFI against antibody concentration)
T1 construct: whole, on cells; One entry covers all human PD-L1-bearing cells; also called huPD-L1 on CHO cells (CHO-hPD-L1); PD-L1 on A431 cells
Method: (§1) Approximately 2.5×10⁵ A431 squamous cell carcinoma cells were plated in a final volume of 50 μL FACS buffer (phosphate buffered saline, 1% fetal bovine serum, 5 mM EDTA) in 96-well plates. 50 μL 2× Zombie Violet (BioLegend) were added to each well, and the plates were incubated 20-30 minutes at room temperature, protected from light. After incubation, 150 μL FACS buffer were added to each well. The plates were centrifuged at 500×g for 5 minutes. The supernatant was removed, and the cell pellet were resuspended in 200 μL FACS buffer. The wash procedure was repeated for a total of 2-3 washes. […] After the cells were incubated with the primary anti-PD-L1 antibody 1 hour on ice, protected from light, 150 μL FACS buffer were added to each well. The plates were then centrifuged, the supernatant was removed, and the cells were resuspended in 250 μL FACS buffer three times. After the third wash, the cells were resuspended in 100 μL goat anti-human IgG-Alexa Fluor 488 secondary antibody, and incubated for 30 minutes on ice, protected from light. After 3 washes as previously described, the cells were resuspended in 200 μL FACS buffer. The cells were then analyzed using a CytoFLEX flow cytometer.

[2] = molecular target: T2, PD-L1-His (Acro Cat PDL-H5229) (human, UniProt Q9NZQ7 19-238); assay: SPR (Biacore 4000), antibody captured on anti-human CM4 chip, PD-L1-His analyte, 37° C.
T2 construct: also called human PD-L1 (SPR analyte); not shown: His tag
Method: The binding affinities of the generated antibodies to human PD-L1 were determined by surface plasmon resonance. […] PD-L1-His (Acro Cat PDL-H5229) was tested for binding in a 3-fold titration series up to 100 nM. Data were collected in HBS-P (pH 7.4) at 37° C. and 25° C.

[3] = molecular target: T3, 6xHis-tagged huPD-L1 (human, UniProt Q9NZQ7 19-238); assay: ELISA, plate-coated human PD-L1 (1 µg/mL), OD 450 nm, B7 ligand specificity panel
T3 construct: also called human PD-L1 (RD Systems 9049-B7); extracellular domain of human PD-L1 fused to a His tag; not shown: 6xHis tag
Method: (§2) Hybridoma supernatants were tested for binding to huPD-L1, cyPD-L1, and muPD-L1 by ELISA. Briefly, 30 μL 6xHis-tagged huPD-L1, cyPD-L1, or muPD-L1 (1 μg/mL in PBS) were immobilized in wells of a 96-well assay plate overnight at 4° C. After washing and blocking steps, 30 μL of antibody supernatant were added to the plate and incubated at room temperature for 1 hr. Bound human antibody was detected using horseradish peroxidase (HRP)-conjugated goat anti-human Fc (Invitrogen Cat. No. 109-035-097; diluted 1:5000) or goat anti-mouse Fc HRP (Invitrogen Cat. No. 115-035-071) as a control. Bound antibody was detected with 1-Step Ultra™ TMB-ELISA Substrate (ThermoFisher Scientific Cat. No. 34029). When the reaction was complete the reaction was stopped, and the plate was read at 450 nm.
(§3) Briefly, wells of a 96-well plate (Corning 3690) were incubated with 30 μL human PD-L1 (RD Systems 9049-B7), human PD-L2 (RD Systems 9075-PL), human B7-1/CD80 (RD Systems 9050-B1), human B7-2/CD86 (RD Systems 9090-B2), human B7-H2 (RD Systems 8206-B7), or human B7-H3 (RD Systems 1949-B3), at a concentration of 1 μg/mL in PBS, overnight at 4C, to coat the wells with ligand. After washing and blocking steps, 30 μL of antibody at 8 concentrations ranging from 1 ng/mL to 3 mg/mL were added to the plate and incubated at room temperature for 1 hr. Bound human antibody was detected as described above.

[4] = molecular target: T1, human PD-L1 expressed on cells; assay: flow cytometry on unstimulated A431 cells, ratio of EC50 values
Method: as §1

[5] = molecular target: T4, human B7-1/CD80 (RD Systems 9050-B1) (human, UniProt P33681 35-242); assay: ELISA, plate-coated human B7-1/CD80 (1 µg/mL), OD 450 nm, B7 ligand specificity panel
T4 sequence (looked up): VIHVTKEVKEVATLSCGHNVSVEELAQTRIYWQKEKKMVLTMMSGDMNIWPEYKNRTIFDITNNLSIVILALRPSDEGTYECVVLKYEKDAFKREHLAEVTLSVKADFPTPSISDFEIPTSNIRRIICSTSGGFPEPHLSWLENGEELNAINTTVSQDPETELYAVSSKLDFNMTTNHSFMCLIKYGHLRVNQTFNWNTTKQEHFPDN
Method: as §2, §3

[6] = molecular target: T5, human B7-2/CD86 (RD Systems 9090-B2) (human, UniProt P42081 24-247, limits assumed); assay: ELISA, plate-coated human B7-2/CD86 (1 µg/mL), OD 450 nm, B7 ligand specificity panel
T5 sequence (looked up): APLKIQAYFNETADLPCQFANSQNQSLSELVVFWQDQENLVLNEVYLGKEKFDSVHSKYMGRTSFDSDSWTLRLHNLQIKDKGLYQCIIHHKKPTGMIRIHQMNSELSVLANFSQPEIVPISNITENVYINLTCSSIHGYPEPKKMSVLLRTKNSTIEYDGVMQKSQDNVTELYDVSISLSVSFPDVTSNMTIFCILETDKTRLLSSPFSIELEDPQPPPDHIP
Method: as §2, §3

[7] = molecular target: T6, 6xHis-tagged cyPD-L1 (cynomolgus monkey, UniProt Q9NZQ7 19-238 (human entry)); assay: ELISA, plate-coated 6xHis cyPD-L1, OD 450 nm
T6 construct: The assay text says only '6xHis-tagged cyPD-L1'; also called cynomolgus PD-L1; not shown: 6xHis tag
Method: as §2
Anti-PD-L1 antibodies, described in Example 1A and manufactured substantially as described in Example 1B, were tested for to huPD-L1 and cyPD-L1 by ELISA substantially as described in Example 1A, using 12 dilutions of antibody ranging from 1 ng/ml to 3 mg/mL.

[8] = molecular target: T1, human PD-L1 expressed on cells; assay: cell-based or functional assay

T1 sequence (Q9NZQ7 19-290): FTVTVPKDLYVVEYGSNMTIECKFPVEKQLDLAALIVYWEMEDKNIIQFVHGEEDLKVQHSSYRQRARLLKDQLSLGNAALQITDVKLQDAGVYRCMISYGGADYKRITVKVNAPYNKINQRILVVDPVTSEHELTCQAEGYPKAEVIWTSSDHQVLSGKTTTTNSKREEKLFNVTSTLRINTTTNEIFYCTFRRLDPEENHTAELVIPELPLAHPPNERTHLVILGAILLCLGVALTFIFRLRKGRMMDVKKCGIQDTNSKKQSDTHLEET
T2 sequence (Q9NZQ7 19-238 limits assumed): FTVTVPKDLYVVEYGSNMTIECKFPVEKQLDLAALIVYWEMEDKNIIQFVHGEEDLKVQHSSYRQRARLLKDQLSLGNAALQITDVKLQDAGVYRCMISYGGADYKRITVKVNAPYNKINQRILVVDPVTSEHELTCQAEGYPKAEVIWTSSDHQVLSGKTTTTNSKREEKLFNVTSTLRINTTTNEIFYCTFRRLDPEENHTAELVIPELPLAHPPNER
T6 sequence (Q9NZQ7 other isoform, or with tags, fused parts or gaps): as the sequence (Q9NZQ7 19-238 limits assumed) above, with A33T, A34S, S62N, R68Q, Q82R, F173L, T185A, T192I, H215L counted along it
T3 sequence (Q9NZQ7 19-238): as the sequence (Q9NZQ7 19-238 limits assumed) above

EC50 [1]: 0.0159 µg/mL
Kd [2]: 1.1 nM
koff [2]: 0.00037 s⁻¹
kon [2]: 330000 M⁻¹ s⁻¹
EC50 [3]: 0.0953 µg/mL
fold potency against avelumab [4]: 3.5 fold
EC50 [5]: 5.31 µg/mL
EC50 [6]: 1.14 µg/mL
EC50 [7]: 0.0338 µg/mL
EC50 of luminescence (RLU), PD-1:PD-L1 Blockade Bioassay (PD-L1 aAPC/CHO-K1 cells with PD-1 Effector Jurkat NFAT-luciferase cells) [8]: 0.067 µg/mL
B1: 1P9 (antibody, V domains shown)
VH: EVQLVESGGGLVQPGGSLRLSCAASGFTFSTYWMSWVRQAPGKGLEWVANIKQDGGERYYVDSVKGRFTISRDNAKSSLYLQMNSLRAEDTALYYCARLRLYSDYEDYWGQGTLVTVSS
VL: DIQMTQSPSSVSASVGDRVTITCRASQGISSWLAWYQQKPGKAPKLLIYSVSSLQSGVPSRFSGSGSGTDFTLTISSLQPEDSATYYCQQANSLPPTFGGGTKVEIK
notes: Recombinant full-length human antibody expressed in CHO K1 GS KO cells, with wild-type human Fc; also called anti-PD-L1 antibody 1P9; Unconj; 1P9
